Source: patent US20240294646A1
Blank lines part the entries; values can stand above or below the substance they belong to.

What was measured:
FcγRIIaR [1] = biological target: FcγRIIaR (UniProt P12318); assay: SPR imaging (IBIS MX96), antibody spotted on chip, soluble receptor as analyte, kinetic fit, 25 C, pH 7.4
Target sequence in this assay (P12318 34-217 H167R limits assumed): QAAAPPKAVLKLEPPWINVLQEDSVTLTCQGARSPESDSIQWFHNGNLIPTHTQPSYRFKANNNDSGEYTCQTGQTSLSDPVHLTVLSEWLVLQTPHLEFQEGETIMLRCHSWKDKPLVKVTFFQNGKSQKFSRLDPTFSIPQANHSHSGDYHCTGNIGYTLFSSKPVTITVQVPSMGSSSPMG

FcγRIIb [2] = biological target: FcγRIIb (UniProt P31994); assay: as above
Target sequence in this assay (P31994 43-217): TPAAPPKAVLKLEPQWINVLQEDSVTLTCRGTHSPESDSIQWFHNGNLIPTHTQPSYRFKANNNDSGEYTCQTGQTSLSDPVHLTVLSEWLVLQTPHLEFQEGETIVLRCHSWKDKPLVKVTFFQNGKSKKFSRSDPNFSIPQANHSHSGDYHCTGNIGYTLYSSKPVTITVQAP

FcγRIIb [3] = biological target: FcγRIIb (UniProt P31994); assay: SPR; ratio of IIb-Fold to IIaR-Fold (FcγRIIb against FcγRIIaR)
Target sequence in this assay (P31994 43-217): as above

FcγRIIaR [4] = biological target: FcγRIIaR (UniProt P12318); assay: SPR; antibody captured on immobilised HER2, soluble FcγR as analyte; fold over wild-type
Target sequence in this assay (P12318 34-217): as the sequence (P12318 34-217 H167R limits assumed) above, with R134H counted along it

FcγRIIb [5] = biological target: FcγRIIb (UniProt P31994); assay: as above
Target sequence in this assay (P31994 43-217): as the sequence (P31994 43-217) above

C1q (human) [6] = biological target: C1q (human) (UniProt P02745); assay: ELISA; antibody coated on the plate, human C1q added; signal as % of wild-type
[7] = biological target: FcγRIIb soluble extracellular domain with C-terminal 10xHis tag (UniProt P31994); assay: SPR, OAA captured on HER2, receptor in solution; KD(control v27294)/KD(variant)
[8] = biological target: FcγRIIb soluble extracellular domain with C-terminal 10xHis tag (UniProt P31994); assay: SPR, OAA captured on HER2, receptor in solution; KD(WT v16463)/KD(variant)
[9] = biological target: FcγRIIaR soluble extracellular domain with C-terminal 10xHis tag (UniProt P12318); assay: as above
[10] = biological target: FcγRIIb soluble extracellular domain with C-terminal 10xHis tag (UniProt P31994); assay: SPR; IIb-Fold/IIaR-Fold (FcγRIIb against FcγRIIaR)
[11] = biological target: FcγRIIb soluble extracellular domain with C-terminal 10xHis tag (UniProt P31994); assay: SPR; IIb selectivity of variant / that of control v27294
[12] = biological target: Soluble FcγRIIb extracellular domain with C-terminal 10xHis tag (UniProt P31994); assay: SPR, antibody captured on immobilised HER2, soluble receptor as analyte
[13] = biological target: Soluble FcγRIIaR extracellular domain with C-terminal 10xHis tag (UniProt P12318); assay: as above
[14] = biological target: Soluble FcγRIIb extracellular domain with C-terminal 10×His tag (UniProt P31994); assay: SPR, antibody captured on HER2 chip, receptor as analyte
C1q (human) [15] = biological target: C1q (human) (UniProt P02745); assay: cell-based or functional assay
FcγRIIaR [16] = biological target: FcγRIIaR (UniProt P12318); assay: SPR (Protocol 1), one-armed antibody captured on HER2, receptor as analyte; ratio to wild-type
Target sequence in this assay (P12318 34-217): as the sequence (P12318 34-217 H167R limits assumed) above, with R134H counted along it

FcγRIIb [17] = biological target: FcγRIIb (UniProt P31994); assay: as above
Target sequence in this assay (P31994 43-217 limits assumed): as the sequence (P31994 43-217) above

FcγRIIb [18] = biological target: FcγRIIb (UniProt P31994); assay: SPR (Protocol 1); FcγRIIb ratio over FcγRIIaR ratio
Target sequence in this assay (P31994 43-217 limits assumed): as the sequence (P31994 43-217) above

[19] = biological target: Soluble FcγRIIb extracellular domain with C-terminal 10xHis tag (UniProt P31994); assay: SPR (Biacore 4000); variant captured on HER2, receptor in solution
[20] = biological target: Soluble FcγRIIaR extracellular domain with C-terminal 10xHis tag (UniProt P12318); assay: as above
FcγRIIaR [21] = biological target: FcγRIIaR (UniProt P12318); assay: SPR (Protocol 1), one-armed antibody captured on HER2, receptor as analyte; fold over wild-type
Target sequence in this assay (P12318 34-217): as the sequence (P12318 34-217 H167R limits assumed) above, with R134H counted along it

FcγRIIb [22] = biological target: FcγRIIb (UniProt P31994); assay: as above
Target sequence in this assay (P31994 43-217 limits assumed): as the sequence (P31994 43-217) above

FcγRIIb [23] = biological target: FcγRIIb (UniProt P31994); assay: SPR (Protocol 1); IIb-Fold over IIaR-Fold
Target sequence in this assay (P31994 43-217 limits assumed): as the sequence (P31994 43-217) above

Sequence of C1q (human) (P02745 23-245 limits assumed, chain 1 of 3): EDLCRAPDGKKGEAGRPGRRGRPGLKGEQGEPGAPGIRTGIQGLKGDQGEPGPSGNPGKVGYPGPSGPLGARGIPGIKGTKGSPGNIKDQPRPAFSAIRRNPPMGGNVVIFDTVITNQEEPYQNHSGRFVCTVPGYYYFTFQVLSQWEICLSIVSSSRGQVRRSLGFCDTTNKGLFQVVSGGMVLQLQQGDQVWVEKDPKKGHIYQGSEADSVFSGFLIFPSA
Sequence of C1q (human) (P02746 28-253 limits assumed, chain 2 of 3, further chain): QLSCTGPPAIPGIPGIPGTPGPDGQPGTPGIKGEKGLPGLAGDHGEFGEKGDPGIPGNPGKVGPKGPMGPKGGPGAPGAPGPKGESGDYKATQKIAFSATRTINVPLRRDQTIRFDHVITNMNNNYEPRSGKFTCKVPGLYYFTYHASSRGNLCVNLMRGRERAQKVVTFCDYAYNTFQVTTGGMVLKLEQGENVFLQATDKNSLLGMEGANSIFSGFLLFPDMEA
Sequence of C1q (human) (P02747 29-245 limits assumed, chain 3 of 3, further chain): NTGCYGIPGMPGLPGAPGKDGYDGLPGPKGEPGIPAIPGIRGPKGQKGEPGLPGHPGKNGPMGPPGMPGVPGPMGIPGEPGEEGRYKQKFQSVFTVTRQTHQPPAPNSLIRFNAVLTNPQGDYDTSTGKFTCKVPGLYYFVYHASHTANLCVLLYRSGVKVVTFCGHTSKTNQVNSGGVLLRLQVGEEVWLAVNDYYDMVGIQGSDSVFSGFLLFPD
Sequence of Soluble FcγRIIaR extracellular domain with C-terminal 10xHis tag (P12318 other isoform, or with tags, fused parts or gaps): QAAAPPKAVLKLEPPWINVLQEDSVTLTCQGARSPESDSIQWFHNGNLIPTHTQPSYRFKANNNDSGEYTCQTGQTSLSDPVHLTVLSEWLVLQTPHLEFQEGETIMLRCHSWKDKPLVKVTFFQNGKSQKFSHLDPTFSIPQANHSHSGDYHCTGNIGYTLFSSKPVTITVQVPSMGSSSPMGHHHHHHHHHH
Sequence of FcγRIIaR soluble extracellular domain with C-terminal 10xHis tag (P12318 other isoform, or with tags, fused parts or gaps): as above
Sequence of Soluble FcγRIIb extracellular domain with C-terminal 10xHis tag (P31994 other isoform, or with tags, fused parts or gaps): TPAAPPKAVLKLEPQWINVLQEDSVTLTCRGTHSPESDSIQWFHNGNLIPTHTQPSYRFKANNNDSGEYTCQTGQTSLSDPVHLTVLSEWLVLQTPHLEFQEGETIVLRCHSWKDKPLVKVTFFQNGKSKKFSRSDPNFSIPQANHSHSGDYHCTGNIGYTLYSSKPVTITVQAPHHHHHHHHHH
Sequence of FcγRIIb soluble extracellular domain with C-terminal 10xHis tag (P31994 other isoform, or with tags, fused parts or gaps limits assumed): as the sequence (P31994 other isoform, or with tags, fused parts or gaps) above
Sequence of Soluble FcγRIIb extracellular domain with C-terminal 10×His tag (P31994 other isoform, or with tags, fused parts or gaps): as above

Substance: Variant 21653 (WT), anti-CD19 (4G7) full-size antibody
Kd (FcγRIIaR [1]): 720 nM | Kd (FcγRIIb [2]): 2200 nM

Substance: Variant 22127 (trastuzumab FSA; A: L234D_G236N_S267A; B: G236D_S239D_V266L_S267A_H268D) (antibody)
IIb Selectivity (IIb-Fold/IIaR-Fold) (FcγRIIb [3]): 12 fold | IIaR-fold (fold change in affinity over wild-type) (FcγRIIaR [4]): 4 fold | IIb-fold (fold change in affinity over wild-type) (FcγRIIb [5]): 49 fold | C1q Binding (% WT) (C1q (human) [6]): 215 % WT

Substance: Variant 26593 (A_L234F_L235D_G236N_H268Q_A327G_A330K_P331S / B_G236D_S239D_V266L_S267A_H268D) (antibody)
IIb-Fold wrt Control [7]: 0.7 fold | IIb-Fold [8]: 65.2 fold | IIaR-fold [9]: 2.5 fold | IIb Selectivity [10]: 26.3 fold

Substance: Variant 26663 (A_L234F_G236N_S267A_H268Q_A327G_A330K_P331S / B_G236D_S239D_V266L_S267A_H268D) (antibody)
IIb-Fold wrt Control [7]: 0.7 fold | IIb-Fold [8]: 62.1 fold | IIaR-fold [9]: 2.6 fold | IIb Selectivity Improvement wrt Control [11]: 1.8 fold | IIb Selectivity [10]: 23.6 fold

Substance: Variant 26931 (A_L234F_G236N_H268Q_A327G_A330K_P331S / B_G236D_G237L_S239D_V266L_S267A_H268D) (antibody)
IIb-Fold wrt Control [7]: 3.2 fold | IIb-Fold [8]: 296 fold | IIaR-fold [9]: 14.2 fold | IIb Selectivity Improvement wrt Control [11]: 1.6 fold | IIb Selectivity [10]: 20.9 fold

Substance: Variant 26939 (A_L234F_G236N_H268Q_A327G_A330K_P331S / B_G236D_G237N_S239D_V266L_S267A_H268D) (antibody)
IIb-Fold wrt Control [7]: 5.8 fold | IIb-Fold [8]: 542 fold | IIaR-fold [9]: 27.5 fold | IIb Selectivity Improvement wrt Control [11]: 1.5 fold | IIb Selectivity [10]: 19.7 fold

Substance: Variant 26940 (A_L234F_G236N_H268Q_A327G_A330K_P331S / B_G236D_G237D_S239D_V266L_S267A_H268D) (antibody)
IIb-Fold wrt Control [7]: 3.3 fold | IIb-Fold [8]: 304 fold | IIaR-fold [9]: 13.1 fold | IIb Selectivity Improvement wrt Control [11]: 1.7 fold | IIb Selectivity [10]: 23.3 fold

Substance: anti-CD40 full-size antibody (Chi Lob 7/4 Fab) with Fc negative variant (L234A, L235A, D265S)
CDC assay on Ramos cells: Lysis (%) Mean, at highest test antibody concentration (C1q (human) [15]): 5.13%

Substance: anti-CD40 full-size antibody (Chi Lob 7/4 Fab) with control Fc v12 (symmetrical E233D_G237D_P238D_H268D_P271G_A330R)
CDC assay on Ramos cells: Lysis (%) Mean, at highest test antibody concentration (C1q (human) [15]): 7.28%

Substance: anti-CD40 full-size antibody (Chi Lob 7/4 Fab) with wild-type CH2, v21653
CDC assay on Ramos cells: Lysis (%) Mean, at highest test antibody concentration (C1q (human) [15]): 77.8% | CDC assay on Ramos cells: Potency (ng/mL) Mean, antibody concentration above which >20% cell lysis was achieved (C1q (human) [15]): 67.7 ng/mL

Substance: one-armed trastuzumab antibody (Scaffold 2), chain A L235D, chain B H268Q_K274Q
Ka,mut/Ka,WT (FcγRIIaR [16]): 1.03 | Ka,mut/Ka,WT (FcγRIIb [17]): 2.24 | Selectivity IIb/IIaR (FcγRIIb [18]): 2.2

Substance: v12 (IIb-specific comparator, symmetrical E233D_G237D_P238D_H268D_P271G_A330R), anti-CD40 (Chi Lob 7/4) full-size antibody
Kd (FcγRIIaR [1]): 390 nM

Substance: v26128 (A_L235P_strat1), one-armed trastuzumab antibody
Kd [19]: 6.5 nM | Kd [20]: 18 nM

Substance: v26129 (A_N236G_strat1), one-armed trastuzumab antibody
Kd [19]: 4.6 nM | Kd [20]: 8.9 nM

Substance: v26130 (A_N236A_strat1), one-armed trastuzumab antibody
Kd [19]: 4 nM | Kd [20]: 12 nM

Substance: v26131 (A_N236V_strat1), one-armed trastuzumab antibody
Kd [19]: 3 nM | Kd [20]: 8 nM

Substance: v26132 (A_N236L_strat1), one-armed trastuzumab antibody
Kd [19]: 2.7 nM | Kd [20]: 7.3 nM

Substance: variant 16490, one-armed trastuzumab antibody (Scaffold 2), G236D in both chains
Ka,mut/Ka,WT (FcγRIIaR [16]): 0.81 | Ka,mut/Ka,WT (FcγRIIb [17]): 2.22 | IIaR-Fold (fold affinity over wild-type) (FcγRIIaR [21]): 0.81 fold | IIb-Fold (fold affinity over wild-type) (FcγRIIb [22]): 2.22 fold | Selectivity IIb/IIaR (FcγRIIb [18]): 2.7 | IIb/IIaR Selectivity (FcγRIIb [23]): 2.75

Substance: variant 16533, one-armed trastuzumab antibody (Scaffold 2), S267I in both chains
Ka,mut/Ka,WT (FcγRIIaR [16]): 0.98 | Ka,mut/Ka,WT (FcγRIIb [17]): 2.69 | IIaR-Fold (fold affinity over wild-type) (FcγRIIaR [21]): 0.98 fold | IIb-Fold (fold affinity over wild-type) (FcγRIIb [22]): 2.69 fold | Selectivity IIb/IIaR (FcγRIIb [18]): 2.8 | IIb/IIaR Selectivity (FcγRIIb [23]): 2.75

Substance: variant 16572, one-armed trastuzumab antibody (Scaffold 2), L234F in both chains
Ka,mut/Ka,WT (FcγRIIaR [16]): 0.21 | Ka,mut/Ka,WT (FcγRIIb [17]): 0.52 | IIaR-Fold (fold affinity over wild-type) (FcγRIIaR [21]): 0.21 fold | IIb-Fold (fold affinity over wild-type) (FcγRIIb [22]): 0.52 fold | Selectivity IIb/IIaR (FcγRIIb [18]): 2.5 | IIb/IIaR Selectivity (FcγRIIb [23]): 2.48

Substance: variant 16578, one-armed trastuzumab antibody (Scaffold 2), A327G_A330S_P331S_L234F_H268Q_K274Q in both chains
Ka,mut/Ka,WT (FcγRIIaR [16]): 0.47 | Ka,mut/Ka,WT (FcγRIIb [17]): 2.03 | IIaR-Fold (fold affinity over wild-type) (FcγRIIaR [21]): 0.47 fold | IIb-Fold (fold affinity over wild-type) (FcγRIIb [22]): 2.03 fold | Selectivity IIb/IIaR (FcγRIIb [18]): 4.4 | IIb/IIaR Selectivity (FcγRIIb [23]): 4.35

Substance: variant 16585, one-armed trastuzumab antibody (Scaffold 2), L234D in both chains
Ka,mut/Ka,WT (FcγRIIaR [16]): 0.17 | Ka,mut/Ka,WT (FcγRIIb [17]): 0.47 | IIaR-Fold (fold affinity over wild-type) (FcγRIIaR [21]): 0.17 fold | IIb-Fold (fold affinity over wild-type) (FcγRIIb [22]): 0.47 fold | Selectivity IIb/IIaR (FcγRIIb [18]): 2.7 | IIb/IIaR Selectivity (FcγRIIb [23]): 2.7

The remaining lines, values ahead:

Kd (FcγRIIaR [1]): 560 nM | Kd (FcγRIIb [2]): 2100 nM
Substance: Variant 21653 (WT), anti-CD40 (Chi Lob 7/4) full-size antibody

Kd (FcγRIIaR [1]): 630 nM | Kd (FcγRIIb [2]): 2000 nM
Substance: Variant 21653 (WT), anti-HER2 (trastuzumab) full-size antibody

IIb Selectivity (IIb-Fold/IIaR-Fold) (FcγRIIb [3]): 9 fold | IIaR-fold (fold change in affinity over wild-type) (FcγRIIaR [4]): 4 fold | IIb-fold (fold change in affinity over wild-type) (FcγRIIb [5]): 33 fold | C1q Binding (% WT) (C1q (human) [6]): 3 % WT
Substance: Variant 22128 (trastuzumab FSA; A: L234F_G236N_H268Q_K274Q_A327G_A330K_P331S; B: L234F_G236D_S239D_V266L_S267A_H268D_K274Q_A327G_A330S_P331S) (antibody)

IIb-Fold wrt Control [7]: 0.6 fold | IIb-Fold [8]: 53.3 fold | IIaR-fold [9]: 2.4 fold | IIb Selectivity Improvement wrt Control [11]: 1.7 fold | IIb Selectivity [10]: 22.6 fold
Substance: Variant 26847 (A_L234F_G236N_H268Q_A327G_A330T_P331S / B_G236D_S239D_V266L_S267A_H268D) (antibody)

Kd [12]: 16 nM | Kd [13]: 44 nM
Substance: Variant 27294, Launching Module 2 (A_L234F_G236N_H268Q_A327G_A330K_P331S / B_G236D_S239D_V266L_S267A_H268D), one-armed trastuzumab antibody

Kd [14]: 150 nM
Substance: Variant 27362, strat3_control (A_G236N_G237A / B_G236D_G237F_S239D_S267V_H268D), one-armed trastuzumab antibody

IIb Selectivity (IIb-Fold/IIaR-Fold) (FcγRIIb [3]): 26 fold | IIaR-fold (fold change in affinity over wild-type) (FcγRIIaR [4]): 7 fold | IIb-fold (fold change in affinity over wild-type) (FcγRIIb [5]): 187 fold | C1q Binding (% WT) (C1q (human) [6]): 2 % WT
Substance: Variant 31190 (trastuzumab FSA; A: L234F_L235D_G236N_H268Q_A327G_A330K_P331S; B: G236D_G237L_S239D_V266L_S267A_H268D) (antibody)

IIb Selectivity (IIb-Fold/IIaR-Fold) (FcγRIIb [3]): 34 fold | IIaR-fold (fold change in affinity over wild-type) (FcγRIIaR [4]): 4 fold | IIb-fold (fold change in affinity over wild-type) (FcγRIIb [5]): 121 fold | C1q Binding (% WT) (C1q (human) [6]): 3 % WT
Substance: Variant 31256 (trastuzumab FSA; A: L234F_G236N_H268Q_A327G_P329I_A330K_P331S; B: G236D_G237D_S239D_V266L_S267A_H268D) (antibody)

CDC assay on Ramos cells: Lysis (%) Mean, at highest test antibody concentration (C1q (human) [15]): 78.2% | CDC assay on Ramos cells: Normalized Potency Mean (C1q (human) [15]): 93.6 % of WT | CDC assay on Ramos cells: Potency (ng/mL) Mean, antibody concentration above which >20% cell lysis was achieved (C1q (human) [15]): 166 ng/mL
Substance: anti-CD40 full-size antibody (Chi Lob 7/4 Fab) with control Fc SELF (S267E_L328F)
